# Test results taken from patent publication US20030236190A1 (published 2003).
# Starred links: 1 amine or outer side, 2 acyl side, 3 side chain; linkers in the order of their positions; H or OH if unused. Positions of bridges follow the written chain, without caps; N, C: chain ends. Non-standard residues stand in square brackets, D forms with d. Primed or numbered codes have the meaning given here. Chains are numbered I, II in the order given. No end group written: not given here. Lig′ = lysine with a 2-aminohydroxyacetyl group (CO-CH2-O-NH2) on the side-chain amino group, O=C(CON[*:3])NCCCC[C@H](N[*:1])C(=O)[*:2]; Tic = O=C(O)[C@@H]1Cc2ccccc2CN1; linker 14 = not defined here; Ac6c = NC1(C(=O)O)CCCCC1
# B1: S255 (peptide)
# peptide 1: SDGFYNAIELLSGGGX
# peptide 2: SDGFYNAIELLSGGGX
# modifications: not fully specified; C-terminal Lig′ coupled to linker 14
# notes: dimer, C-C
# B2: S231 (peptide)
# peptide 1: FHENFYDWFVRQVSKKGGGX
# peptide 2: FHENFYDWFVRQVSKKGGGX
# modifications: not fully specified; C-terminal Lig′ coupled to linker 14
# notes: dimer, C-C
# B3: S218 (peptide)
# peptide 1: AFYDWFAKK[Lig′]
# peptide 2: AFYDWFAKK[Lig′]
# modifications: linker I:10-II:10 via linker 14; not fully specified; reading uncertain
# notes: dimer, C-C
# B4: S172 (peptide)
# peptide 1: XFHENFYDWFVRQVSKK
# peptide 2: XFHENFYDWFVRQVSKK
# modifications: N-terminal Lig coupled to linker 14
# notes: dimer, N-N
# B5: S170 (peptide)
# peptide 1: CGFHENFYDWFVRQVSKK
# peptide 2: CGFHENFYDWFVRQVSKK
# modifications: bridge I:1-II:1; also: homodimer, N-N, linked at cysteines, type of link not given here
# notes: dimer, N-N; also called 3170 (so in the source)
# B6: S233 (peptide)
# peptide 1: FHENFYDWFVRQVSKKX
# peptide 2: SDGFYNAIELLSX
# modifications: not fully specified; C-terminal Lig′ coupled to linker 14
# notes: heterodimer F1-F2, C-C
# B7: S229 (peptide)
# peptide 1: SDGFYNAIELLSX
# peptide 2: KHLCVLEELFWGASLFGYCSGKKX
# modifications: not fully specified; C-terminal Lig′ coupled to linker 12
# notes: heterodimer F2-F4, C-C
# B8: S169 (peptide)
# peptide 1: XFHENFYDWFVRQVSKK
# peptide 2: XFHENFYDWFVRQVSKK
# modifications: N-terminal Lig coupled to linker 12
# notes: dimer, N-N
# Target: T1, human insulin receptor (HIR) (human, UniProt P06213 28-1382, limits assumed)
# T1 construct: Detergent-solubilised receptor; The natural receptor is an alpha2-beta2 heterotetramer cleaved from one precursor
# Assay: 125I-insulin displacement, solubilised HIR
row,Kd [µM],Binder
1,1.6,B1
2,2.4,SDGFYNAIELLS [S118]
3,5.6,GRVDWLQRNANFYDWFV [S251]
4,1,FHENFYDWFVRAVSKK [S107]
5,16,HPSTNQMLMKLFK [S123]
6,0.61,FAENFYDWFVRQVSKK [S112]
7,2,NFYDWFVAELG [S243]
8,9.3,HPTSKEIYAKLLK [S122]
9,0.053,VDWLQRNANFYDWFVAELG [S235]
10,0.75,FHENFYDWFVAQVSKK [S108]
11,0.81,FHENFYDWFVRQVSK (also called D117/H2C) [S158]
12,0.1,DWLQRNANFYDWFVAELG [S236]
13,1.6,NANFYDWFVAELG [S241]
14,3.1,NSFYEALRMLSSK [S121]
15,1.8,SLNFYDALQLLAKK [S119]
16,2,HDPFYSMMKSLLK [S120]
17,9,[Ac6c]CLEEWGASL[Tic]QCSG (cysteine pairing not given here) [S256]
18,0.59,AHENFYDWFVRQVSKK [S113]
19,0.063,GRVDWLQRNANFYDWFVAEL [S248]
20,0.85,WLQRNANFYDWFVAELG [S237]
21,14,RWPNFYGYFESLLTHFS [S257]
22,0.27,B2
23,3.8,AAAAFYDWFAAAAAKK [S168]
24,0.13,EHWNTVDPFYQYFSELLRESG [S178]
25,1.6,QLEEEWAGVQCEVYGRECPS [S226]

row,Kd [µM],Binder
1,8.9,GRVDWLQRNANFYDWFVA [S250]
2,16,PLAELWAYFEHSEQGRSSAH [S174]
3,0.13,RVDWLQRNANFYDWFVAELG [S234]
4,2.3,LDRQFYRYFQDLLVGFM [S260]
5,0.31,FHENFYDWFVRQVAKK [S105]
6,11,B3
7,0.42,FHENFYDWFVRQASKK [S106]
8,0.65,EFHENFYDWFVRQVSEE [S115]
9,23,HPPLSELKLFLIKK [S124]
10,0.85,LQRNANFYDWFVAELG [S238]
11,2.7,HETFYSMIRSLAK [S117]
12,2.9,SSNFYQALMLLS [S129]
13,4.8,B4
14,0.7,B5
15,2.9,CGFHENFYDWFVRQVSKK (also called 3171 (so in the source)) [S171]
16,0.26,B6
17,2.7,EHWNTVDPFYFTLFEWLRESG [S177]
18,0.044,B7
19,19,PLCFLQELFGGASLGGYCSG [S262]
20,0.47,NGVERAGTGDNFYDWFVAQLH [S176]
21,0.54,QSDSGTVHDRFYGWFRDTWAS [S179]
22,0.74,GRVDWLQRNANFYDWFVAE [S249]
23,2,ANFYDWFVAELG [S242]
24,0.58,B8
